Measured values published in publication PMC314469, “Protein Interaction Networks by Proteome Peptide Scanning” (PLoS Biology, 2004).

T1: Boi1 SH3 (BOI1_YEAST), P38041
T1 chain: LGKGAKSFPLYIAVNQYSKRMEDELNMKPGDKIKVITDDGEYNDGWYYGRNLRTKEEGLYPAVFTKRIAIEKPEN

T2: Boi2 SH3 (BOI2_YEAST), P39969
T2 chain: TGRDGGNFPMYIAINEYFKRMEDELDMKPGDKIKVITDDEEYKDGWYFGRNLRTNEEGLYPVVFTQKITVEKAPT

T3: Rvs167 SH3 (RV167_YEAST), P39743
T3 chain: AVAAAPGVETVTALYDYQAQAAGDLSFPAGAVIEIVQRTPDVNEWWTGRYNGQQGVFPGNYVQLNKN

T4: Yfr024 SH3 (LSB3_YEAST), P43603
T4 chain: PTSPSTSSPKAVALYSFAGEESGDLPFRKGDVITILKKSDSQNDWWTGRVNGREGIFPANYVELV

T5: Yhr016c SH3 (YSC84_YEAST), P32793
T5 chain: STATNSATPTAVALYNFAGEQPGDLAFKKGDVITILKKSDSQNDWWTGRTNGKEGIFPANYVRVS


Assays:
Assay in all cases: SPOT array
[1] = molecular target: T1, Boi1 SH3 (BOI1_YEAST), P38041
[2] = molecular target: T2, Boi2 SH3 (BOI2_YEAST), P39969
[3] = molecular target: T3, Rvs167 SH3 (RV167_YEAST), P39743
[4] = molecular target: T4, Yfr024 SH3 (LSB3_YEAST), P43603
[5] = molecular target: T5, Yhr016c SH3 (YSC84_YEAST), P32793

normalised SPOT signal, Boehringer light units (BLU); mean over the file's lines of this peptide [1]	normalised SPOT signal, Boehringer light units (BLU); mean over the file's lines of this peptide [2]	normalised SPOT signal, Boehringer light units (BLU); mean over the file's lines of this peptide [3]	normalised SPOT signal, Boehringer light units (BLU); mean over the file's lines of this peptide [4]	normalised SPOT signal, Boehringer light units (BLU); mean over the file's lines of this peptide [5]	Binder
48.7	26.4	9	-0	85.5	EVYPIEPPKVVSLK [YLR306W 88-101]
61.5	44.1	91.8	217	0	FSHPLSPLKSNFID [YGL177W 74-87]
218	66.4	8120	15300	8100	FLLPNLPMRTFKEI [YIL105C 444-457]
56.4	29.9	48.4	3150	762	EYHPIKPLRSSSST [YDL180W 234-247]
9870	87.1	6840	44800	42100	FHDPILPRRTSTFL [YHL028W 526-539]
231	20.4	68.3	1540	301	FISPHLPMKGRLVL [YGR068C 471-484]
78.2	55.1	47.2	50.5	43.7	FENPTIPKKSYSEF [YPR045C 291-304]
255	11.4	70.5	625	42.4	FNGPEPPIKRLKKA [YNL286W 148-161]
120	15.3	32.5	0	242	EYFPISPEKKEEME [YGR237C 591-604]
52.4	103	114	834	358	FPFPTPPDRVALSK [YMR128W 865-878]
57.9	76	0	1060	210	FFQPEYPVRMEPDL [YLR128W 194-207]
63.1	149	61.6	68	129	FFDPESPNKGKLIL [YPL269W 491-504]
70.3	2.4	28.7	53	135	FDFPLSPVKHENPT [YBR098W 196-209]
295	67.3	1190	36400	25000	FLPPPKPFRHTETK [YBR108W 587-600]
92.6	24.4	56.8	0	117	FLQPVDPVKLDIPF [YLR399C 173-186]
103	21.5	28	98.1	122	FPDPNNPSKVQIRM [YAL051W 375-388]
97.7	244	166	7880	2660	FKMPKKPQRSKEEV [YOR243C 86-99]
80.9	38.8	33.7	267	143	FKAPTNPRKVYSKR [YMR035W 79-92]
96.5	34.6	58.9	437	243	FLSPGKPSKGTSLH [YML005W 163-176]
103	56.6	202	370	177	EYSPLVPSKMSADK [YBR044C 356-369]
3280	308	398	5160	269	FGTPVAPTRTLSRK [YOR070C 179-192]
154	9.4	22.5	298	288	FFHPAIPLKNAAPF [YER066C-A 112-125]
